Test results from patent US20070282017A1 (Harvard, published 2007).

Assays:
[1] = molecular target: Endogenous Ser65-phosphorylated BIMEL in cerebellar granule neurons (UniProt O88498)
Recombinant GST-Pin1 = molecular target: T1, Recombinant GST-Pin1 (UniProt Q13526 1-163); assay: GST-Pin1 pulldown from 293T lysates, anti-FLAG immunoblot
T1 construct: Bait in GST pulldown assays; not shown: glutathione S-transferase (GST) fusion partner
T1 sequence (Q13526 whole entry, the tested form may be a part): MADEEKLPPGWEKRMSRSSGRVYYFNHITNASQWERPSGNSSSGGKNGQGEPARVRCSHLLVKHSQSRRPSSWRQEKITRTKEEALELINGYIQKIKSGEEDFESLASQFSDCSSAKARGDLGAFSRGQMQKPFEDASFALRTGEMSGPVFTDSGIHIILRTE

Sequence of Endogenous Ser65-phosphorylated BIMEL in cerebellar granule neurons (O88498 whole entry): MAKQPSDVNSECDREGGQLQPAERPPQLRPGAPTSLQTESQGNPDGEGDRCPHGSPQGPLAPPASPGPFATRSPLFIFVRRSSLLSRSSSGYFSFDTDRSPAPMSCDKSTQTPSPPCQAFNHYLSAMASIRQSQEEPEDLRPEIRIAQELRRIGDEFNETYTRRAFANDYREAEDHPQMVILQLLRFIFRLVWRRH

Row | Molecule | BIMEL protein levels in granule neurons after Pin1 RNAi lentivirus (immunoblot) [1] | binding result (Recombinant GST-Pin1)
1 | Endogenous Pin1 in cerebellar granule neurons | 46±1.5% reduction | 
2 | FLAG-tagged JIP3 fragment 144-241 (other, UniProt Q9ESN9 144-241, looked up, Expressed in 293T cells; not shown: 3xFLAG tag of the 3xFLAG CMV-7.1 vector) ADQISRLEERESEMKKEYNALHQRHTEMIQTYVEHIERSKMQQVGGSGQTESSLPGRSRKERPTSLNVFPLADGMVRAQMGGKLVPAGDHWHLSDLGQ |  | no binding
